Results on one protein are retold here after PMC8249653.

Substrate in this data set: C[C@H](O)C(=O)O
The data set can be described thus: cells, lysate or membranes. The following applies: pH 7.3, 37 °C, 2 min uptake, 1-100 µM L-lactate, labelled compound (14C tracer spike).

B1: Slc16a13 (SLC16A13/MCT13) (Mus musculus) (protein)
chain: MVRRAEPPDGGWGWMVVLSAFFQSALVFGVLRSFGVFFVEFVAAFEEQAARVSWIASIGIAVQQFGSPIGSALSTKLGPRPVVMTGGILAALGMLLASFATSLTHLYLSIGLLSGSGWALTFTPTMACLSRYFSQRRSLAMGLALTGVGISSFAFAPLFQWLINNYAWRGALLLVSALSLHLMACGALLRPLSLTEDAAVGGPGAQITSLLRHGPFLRYTAALTLINTGFFIPYVHLVAHLQDLGWDPLPAAFLLSVAAVSDLVGRVASGWLGDAVPGPVARLLMLWTTLTGVSLALFPVAQASSTLVVLAVAYGFTSGALTPVAFSVLPELVGTGRIYCGMGLVQMIESIGGLLGAPLSGYLRDVTGNYTASFVVAGAFLLAGSGVLLTLPHFFSCISVSTSRPQDLVIEASDTKIPLPKEEGLGEN
On to B1, for which the Km stood at 0.47 ± 0.35 µM.
